One substance from PMC12945441 can be followed below.

For orientation: stoichiometry N means the number of molecules, sites or subunits per partner or assembly.

This assay concerns the target prefusion SARS-CoV-2 Omicron BA.1 S ectodomain trimer (SARS-CoV-2 Omicron BA.1). Description: cryo-EM structure.

“prefusion SARS-CoV-2 Omicron BA.1 S ectodomain trimer (domain or fragment)” registered a stoichiometry N of 3.
